The values that follow are results of earlier work, collected in publication PMC9221429.

Data set [1] has as its target B-Raf V600E (Homo sapiens) (UniProt P15056).
The next data set has as its target B-Raf (Homo sapiens) (UniProt P15056).

Cdc37, sequence (Q16543 2-378): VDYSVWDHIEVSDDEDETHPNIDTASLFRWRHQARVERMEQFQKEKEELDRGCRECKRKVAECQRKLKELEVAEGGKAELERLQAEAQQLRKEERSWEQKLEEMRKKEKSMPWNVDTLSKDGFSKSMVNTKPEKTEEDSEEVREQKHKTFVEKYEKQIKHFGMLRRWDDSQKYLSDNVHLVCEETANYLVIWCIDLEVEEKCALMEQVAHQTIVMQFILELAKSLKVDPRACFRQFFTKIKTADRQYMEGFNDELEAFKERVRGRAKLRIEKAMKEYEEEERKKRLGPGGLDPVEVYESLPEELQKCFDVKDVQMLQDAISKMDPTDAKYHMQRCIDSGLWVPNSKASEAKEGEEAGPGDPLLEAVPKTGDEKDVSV
B-Raf (Homo sapiens), sequence (P15056 2-766): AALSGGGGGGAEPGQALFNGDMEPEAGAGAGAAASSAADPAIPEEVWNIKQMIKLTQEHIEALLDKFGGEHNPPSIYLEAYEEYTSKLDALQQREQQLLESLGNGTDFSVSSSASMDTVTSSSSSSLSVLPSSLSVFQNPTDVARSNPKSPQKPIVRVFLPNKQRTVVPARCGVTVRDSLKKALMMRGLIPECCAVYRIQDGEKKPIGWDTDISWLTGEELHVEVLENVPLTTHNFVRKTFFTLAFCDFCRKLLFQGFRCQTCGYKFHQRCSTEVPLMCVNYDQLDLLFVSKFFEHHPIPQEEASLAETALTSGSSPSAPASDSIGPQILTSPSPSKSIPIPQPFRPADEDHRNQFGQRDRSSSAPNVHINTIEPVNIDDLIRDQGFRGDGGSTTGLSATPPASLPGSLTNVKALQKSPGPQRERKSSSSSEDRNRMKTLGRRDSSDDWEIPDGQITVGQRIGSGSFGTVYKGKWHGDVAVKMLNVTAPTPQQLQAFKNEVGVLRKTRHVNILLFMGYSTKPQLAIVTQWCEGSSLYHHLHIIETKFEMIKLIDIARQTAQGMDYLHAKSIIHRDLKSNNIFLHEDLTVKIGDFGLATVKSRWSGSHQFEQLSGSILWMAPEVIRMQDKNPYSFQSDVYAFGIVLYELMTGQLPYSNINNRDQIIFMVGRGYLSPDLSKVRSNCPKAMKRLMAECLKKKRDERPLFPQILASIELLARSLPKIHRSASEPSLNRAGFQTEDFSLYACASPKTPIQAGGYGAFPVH
B-Raf V600E (Homo sapiens), sequence (P15056 2-766 V600E): as the sequence (P15056 2-766) above, with V599E counted along it

Take Cdc37 (from UniProt Q16543): the values for the Kd (in data set [1]; with B-Raf (Homo sapiens)) were 400 nM and 1000 nM, respectively.

What is called Kd is the constant that tells how readily two partners part at equilibrium.
